From PMC3365711 (The Journal of Biological Chemistry, 2012) come the findings set out here.

For orientation: Kd means a measure of binding affinity in units of concentration. Read a low Kd as higher affinity.

For this experiment, the target named is human HP1 CSDα (109–185) (human, UniProt P45973 109-185). Description: other fluorescence titration.
Chain of human HP1 CSDα (109–185) (P45973 109-185): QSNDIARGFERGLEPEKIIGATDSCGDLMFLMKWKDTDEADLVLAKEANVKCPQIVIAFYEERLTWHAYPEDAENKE

Take SKAGDLLFIEKVPVVVLEDILATKPSIAS (peptide, UniProt Q9QWF0 210-238, looked up) [CAF1 p150(210–238)]: the Kd amounted to 430 ± 100 nM.
